In the assay the target is pBIND-ASK1N (DNA binding domain fused to ASK1 N-terminal 1-678 aa, CheckMate mammalian two-hybrid system) (Homo sapiens (Human)) (UniProt Q99683). Nature of the assay: cell-based or functional assay.
Chain of UniProt Q99683 (Q99683 other isoform, or with tags, fused parts or gaps limits assumed, form in doubt): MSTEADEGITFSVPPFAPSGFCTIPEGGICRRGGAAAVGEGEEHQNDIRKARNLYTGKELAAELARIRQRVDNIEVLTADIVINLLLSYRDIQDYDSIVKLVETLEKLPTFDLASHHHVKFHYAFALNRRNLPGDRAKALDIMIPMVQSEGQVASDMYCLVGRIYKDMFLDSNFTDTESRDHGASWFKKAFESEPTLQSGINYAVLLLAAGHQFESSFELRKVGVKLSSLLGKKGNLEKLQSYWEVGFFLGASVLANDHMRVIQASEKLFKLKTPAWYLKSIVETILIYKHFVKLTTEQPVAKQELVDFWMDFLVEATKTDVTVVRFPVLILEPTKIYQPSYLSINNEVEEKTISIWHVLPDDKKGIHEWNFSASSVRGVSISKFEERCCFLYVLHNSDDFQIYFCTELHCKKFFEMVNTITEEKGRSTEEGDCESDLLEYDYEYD

For the substance “pACT-ASK1N (transcriptional activation domain fused to ASK1 N-terminal 1-678 aa, CheckMate mammalian two-hybrid system) (from UniProt Q99683 1-678)”, the ratio of RLU value of firefly luciferase to RLU value of Renilla luciferase, group A (no peptide) worked out at 1.9.

Values taken from patent publication US20180149638A1.
